Data: patent publication US20190144537A1 (AVEO PHARMACEUTICALS, published 2019)

Key:
[1] = molecular target: T1, murine Notch3 on the cell surface (murine, UniProt Q61982 40-2318); assay: FACS on FlpIn CHO cells expressing full length murine Notch3, 5 ug/ml antibody, anti-human PE secondary antibody
T1 construct: whole, on cells; also called mNotch3; full length murine Notch3
Protocol: (§1) Full length Notch receptor cDNAs cloned into pcDNA5FRT were transfected into FlpIn™ CHO cells and selected with 600 μg/ml hygromycin (Sigma), according to the manufacturer's protocol. Cell surface expression of Notch receptors is confirmed by FACS analysis using anti-Notch1 PE, anti-Notch2 PE or anti-Notch3 PE control antibodies (Biolegend). […] FACS is performed on a BD FACSCanto II cell analyzer (BD Biosciences) and analyzed using FlowJo software.

[2] = molecular target: T2, human Notch1 on the cell surface (human, UniProt P46531 19-2555); assay: FACS on FlpIn CHO cells expressing full length human Notch1, anti-human PE secondary antibody
T2 construct: whole, on cells; also called cell surface human Notch1; full length human Notch1
Protocol: as §1

[3] = molecular target: T3, recombinant human Notch3 extracellular domain (containing EGF like domains 1-11) Fc fusion protein (human, UniProt Q9UM47 40-467); assay: SPR (Biacore), 28042 captured as ligand, rhNotch3-Fc injected as sample, 25 C, 1:1 binding fit; the same fit is printed under the Notch3 sensorgram as ka 2.720E+5
T3 construct: Bought from R&D Systems; also called rhNotch3-Fc; Notch3-Fc; not shown: Fc of the bought fusion protein
T3 sequence: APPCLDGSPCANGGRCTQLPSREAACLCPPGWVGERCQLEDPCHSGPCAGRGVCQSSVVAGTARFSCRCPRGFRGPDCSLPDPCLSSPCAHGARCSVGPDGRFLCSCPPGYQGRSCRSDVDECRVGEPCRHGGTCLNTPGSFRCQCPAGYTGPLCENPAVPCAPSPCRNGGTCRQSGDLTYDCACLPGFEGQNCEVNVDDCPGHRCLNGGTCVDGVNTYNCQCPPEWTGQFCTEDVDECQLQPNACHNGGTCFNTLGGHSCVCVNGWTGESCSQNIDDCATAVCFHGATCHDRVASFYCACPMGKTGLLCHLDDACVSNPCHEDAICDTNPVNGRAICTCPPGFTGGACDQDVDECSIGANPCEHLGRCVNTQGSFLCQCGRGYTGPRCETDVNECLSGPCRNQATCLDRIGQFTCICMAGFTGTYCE
Protocol: (§2) Rabbit anti-mouse IgGs (GE Healthcare) are immobilized on carboxymethylated dextran CM4 sensor chips (GE Healthcare) by amine coupling, according to a standard protocol. Analyses are performed at 25° C. and 37° C. using PBS containing 0.05% surfactant P20 as running buffer. The antibody is captured in individual flow cells at a flow rate of 10 μL/minute. Injection time is varied for each antibody to yield an R max between 30 and 60 RU. 250 μg/mL human IgG Fc is injected to block non-specific binding of Fc (from the Notch3 fusion protein) to the capture antibody. Buffer or rhNotch1-Fc (R&D Systems, Minneapolis, Minn.; Cat. No. 3647-TK-050), rhNotch2-Fc (R&D Cat. No. 3735-NT-050), and rhNotch3-Fc (R&D Cat. No. 1559-NT-050), diluted in running buffer is injected sequentially over a reference surface (no antibody captured) and the active surface (antibody to be tested) for 240 seconds at 60 μL/minute. The dissociation phase is monitored for up to 1500 seconds. The surface is then regenerated with two 60-second injections of 10 mM Glycine-HCl, pH 2.25, at a flow rate of 30 μL/minute. The rhNotch3-Fc, rhNotch2-Fc, and rhNotch1-Fc concentration range tested are 100 nM to 3.125 nM (2 fold dilution).

[4] = molecular target: T3, recombinant human Notch3 extracellular …; assay: SPR (Biacore T100), antibody captured by goat anti-human IgG, rhNotch3-Fc injected, 37° C.
Protocol: (§3) Goat anti-human IgG is immobilized on carboxymethylated dextran CM4 sensor chips (GE Healthcare) by amine coupling, according to a standard protocol. Analyses are performed at 25° C. and 37° C. using PBS containing 0.05% surfactant P20 as running buffer. The antibody is captured in individual flow cells at a flow rate of 10 μl/minute. Injection time is varied for each antibody to yield an R max between 30 and 60 resonance units (RU). 250 μg/mL human IgG Fc is injected to block non-specific binding of Fc (from the Notch3 fusion protein) to the capture antibody. Buffer or rhNotch3-Fc diluted in running buffer is injected sequentially over a reference surface (no antibody captured) and the active surface (antibody to be tested) for 240 seconds at 60 μL/minute. The dissociation phase is monitored for up to 1500 seconds. The surface is then regenerated with two 60-second injections of 10 mM Glycine-HCl, pH 2.25, at a flow rate of 30 μL/minute. The rhNotch3-Fc concentration range tested is 100 nM to 3.125 nM (2 fold dilution).
(§4) Kinetic parameters can be determined using the kinetic function of the BIAevaluation software (GE Healthcare) with double reference subtraction. Kinetic parameters for the antibody, kₐ (association rate constant), kd (dissociation rate constant) and KD (equilibrium dissociation constant) are determined.

rhNotch1-Fc = molecular target: T4, rhNotch1-Fc (human, UniProt P46531 19-1735); assay: SPR (Biacore), 28042 captured as ligand, rhNotch1-Fc as sample, 25 C; software 1:1 fit printed under a sensorgram that stays below about 1.5; the drawn table gives '-' for this pair
T4 construct: extracellular domain; Bought from R&D Systems; also called R&D Cat. No. 3647-TK-050; not shown: Fc of the bought fusion protein
Protocol: as §2

[5] = molecular target: T3, recombinant human Notch3 extracellular …; assay: SPR (Biacore), 28042 captured as ligand, rhNotch3-Fc injected as sample, 25 C, 1:1 binding fit
Protocol: as §2

[6] = molecular target: T5, human Notch2 on the cell surface (human, UniProt Q04721 26-2471); assay: FACS on FlpIn CHO cells expressing full length human Notch2, anti-human PE secondary antibody
T5 construct: whole, on cells; also called cell surface human Notch2; full length human Notch2
Protocol: as §1

[7] = molecular target: T3, recombinant human Notch3 extracellular …; assay: SPR (Biacore), 28042 captured as ligand, rhNotch3-Fc injected as sample, 25 C, 1:1 binding fit; the same fit is printed under the Notch3 sensorgram as kd 2.580E-4
Protocol: as §2

cynoNotch3 monomer = molecular target: T6, cynoNotch3 monomer (cyno); assay: binding to cynoNotch3 monomer at 25° C., protocol similar to that for hNotch3 (method not named)
T6 construct: Only named as 'cynoNotch3 monomer'

[8] = molecular target: T7, human Notch3 on the cell surface (human, UniProt Q9UM47 40-2321); assay: cell-based or functional assay
[9] = molecular target: T3, recombinant human Notch3 extracellular …; assay: SPR (Biacore T100), antibody captured by goat anti-human IgG, rhNotch3-Fc injected, 25° C.
Protocol: as §3, §4

[10] = molecular target: T7, human Notch3 on the cell surface; assay: FACS at 4° C. on cells expressing human Notch3, one site binding fit; cell line not stated
Excerpt: CHO N3 (Flp-In-CHO cells (Invitrogen) stably transfected with human Notch3), HCC2429 cells, and RL-952 cells expressing human Notch3 are washed once with PBS containing calcium chloride and magnesium chloride (Invitrogen) and harvested using cell dissociation buffer (Invitrogen). Cells are washed a second time with PBS and resuspended in FACS buffer (PBS with 0.5% BSA (Sigma-Aldrich)) for a final cell concentration of 250,000 cells per well into a 96-well v-bottom plate. Purified antibodies are diluted in FACS buffer over a concentration range of 100 nM to 0 nM. Cells are then incubated at 4° C. with 100 μL of antibody for one hour, washed with FACS buffer twice, and resuspended in 100 μL of goat-anti mouse PE-conjugated antibody (Jackson Immuno Research). Cells are incubated at 4° C. for 30 minutes in the dark, washed once with FACS buffer, and then analyzed using a Beckman Coulter Cytomics FC 500 instrument. The geometric mean of the florescent intensity then is calculated for each antibody concentration. These values then are entered into Prism software (GraphPad, La Jolla, Calif.) and used to generate a binding curve by plotting geometric mean versus antibody concentration.

T4 sequence (P46531 19-1735): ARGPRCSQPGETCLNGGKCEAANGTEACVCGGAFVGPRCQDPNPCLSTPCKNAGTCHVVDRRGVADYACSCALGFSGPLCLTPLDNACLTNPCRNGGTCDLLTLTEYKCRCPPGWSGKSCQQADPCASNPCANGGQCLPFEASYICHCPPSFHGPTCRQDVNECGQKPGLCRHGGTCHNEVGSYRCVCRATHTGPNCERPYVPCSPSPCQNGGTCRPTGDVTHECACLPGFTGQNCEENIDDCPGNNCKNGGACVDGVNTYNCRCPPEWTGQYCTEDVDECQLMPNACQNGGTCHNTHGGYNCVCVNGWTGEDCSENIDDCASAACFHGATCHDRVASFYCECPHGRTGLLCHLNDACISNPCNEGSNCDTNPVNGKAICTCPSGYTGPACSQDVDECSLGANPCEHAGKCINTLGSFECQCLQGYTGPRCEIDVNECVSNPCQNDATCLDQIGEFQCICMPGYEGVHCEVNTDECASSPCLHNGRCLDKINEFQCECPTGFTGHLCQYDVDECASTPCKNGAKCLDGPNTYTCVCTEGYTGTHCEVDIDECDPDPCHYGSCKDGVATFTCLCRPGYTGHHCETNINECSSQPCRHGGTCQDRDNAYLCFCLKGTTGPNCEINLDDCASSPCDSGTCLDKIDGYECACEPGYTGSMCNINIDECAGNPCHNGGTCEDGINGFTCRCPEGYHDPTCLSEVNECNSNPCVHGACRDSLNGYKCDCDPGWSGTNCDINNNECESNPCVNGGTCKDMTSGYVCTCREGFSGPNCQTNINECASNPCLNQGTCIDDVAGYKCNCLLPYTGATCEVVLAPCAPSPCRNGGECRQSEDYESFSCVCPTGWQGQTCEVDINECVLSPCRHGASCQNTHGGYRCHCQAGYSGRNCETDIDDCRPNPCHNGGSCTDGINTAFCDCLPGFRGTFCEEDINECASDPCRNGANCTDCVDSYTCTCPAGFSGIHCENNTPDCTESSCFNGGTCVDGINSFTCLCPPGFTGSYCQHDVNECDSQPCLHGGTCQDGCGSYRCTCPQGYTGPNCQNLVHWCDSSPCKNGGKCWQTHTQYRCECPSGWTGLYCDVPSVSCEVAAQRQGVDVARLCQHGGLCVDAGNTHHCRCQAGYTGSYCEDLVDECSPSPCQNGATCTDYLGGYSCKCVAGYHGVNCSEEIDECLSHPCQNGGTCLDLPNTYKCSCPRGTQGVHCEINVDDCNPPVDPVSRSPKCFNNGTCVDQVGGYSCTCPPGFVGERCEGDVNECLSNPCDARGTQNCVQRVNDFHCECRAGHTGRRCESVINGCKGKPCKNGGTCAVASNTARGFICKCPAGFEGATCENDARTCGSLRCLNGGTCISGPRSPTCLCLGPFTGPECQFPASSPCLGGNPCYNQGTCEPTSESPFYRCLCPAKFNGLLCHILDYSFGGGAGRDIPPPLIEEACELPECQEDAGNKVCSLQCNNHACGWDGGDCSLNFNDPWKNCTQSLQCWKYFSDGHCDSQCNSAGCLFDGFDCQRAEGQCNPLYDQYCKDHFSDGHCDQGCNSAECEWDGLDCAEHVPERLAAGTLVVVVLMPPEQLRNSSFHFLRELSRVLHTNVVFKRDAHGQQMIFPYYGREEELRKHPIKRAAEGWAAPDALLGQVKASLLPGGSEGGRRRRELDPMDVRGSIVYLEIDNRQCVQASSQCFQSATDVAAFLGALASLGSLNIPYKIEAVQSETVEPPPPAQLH
T1 sequence (Q61982 40-2318): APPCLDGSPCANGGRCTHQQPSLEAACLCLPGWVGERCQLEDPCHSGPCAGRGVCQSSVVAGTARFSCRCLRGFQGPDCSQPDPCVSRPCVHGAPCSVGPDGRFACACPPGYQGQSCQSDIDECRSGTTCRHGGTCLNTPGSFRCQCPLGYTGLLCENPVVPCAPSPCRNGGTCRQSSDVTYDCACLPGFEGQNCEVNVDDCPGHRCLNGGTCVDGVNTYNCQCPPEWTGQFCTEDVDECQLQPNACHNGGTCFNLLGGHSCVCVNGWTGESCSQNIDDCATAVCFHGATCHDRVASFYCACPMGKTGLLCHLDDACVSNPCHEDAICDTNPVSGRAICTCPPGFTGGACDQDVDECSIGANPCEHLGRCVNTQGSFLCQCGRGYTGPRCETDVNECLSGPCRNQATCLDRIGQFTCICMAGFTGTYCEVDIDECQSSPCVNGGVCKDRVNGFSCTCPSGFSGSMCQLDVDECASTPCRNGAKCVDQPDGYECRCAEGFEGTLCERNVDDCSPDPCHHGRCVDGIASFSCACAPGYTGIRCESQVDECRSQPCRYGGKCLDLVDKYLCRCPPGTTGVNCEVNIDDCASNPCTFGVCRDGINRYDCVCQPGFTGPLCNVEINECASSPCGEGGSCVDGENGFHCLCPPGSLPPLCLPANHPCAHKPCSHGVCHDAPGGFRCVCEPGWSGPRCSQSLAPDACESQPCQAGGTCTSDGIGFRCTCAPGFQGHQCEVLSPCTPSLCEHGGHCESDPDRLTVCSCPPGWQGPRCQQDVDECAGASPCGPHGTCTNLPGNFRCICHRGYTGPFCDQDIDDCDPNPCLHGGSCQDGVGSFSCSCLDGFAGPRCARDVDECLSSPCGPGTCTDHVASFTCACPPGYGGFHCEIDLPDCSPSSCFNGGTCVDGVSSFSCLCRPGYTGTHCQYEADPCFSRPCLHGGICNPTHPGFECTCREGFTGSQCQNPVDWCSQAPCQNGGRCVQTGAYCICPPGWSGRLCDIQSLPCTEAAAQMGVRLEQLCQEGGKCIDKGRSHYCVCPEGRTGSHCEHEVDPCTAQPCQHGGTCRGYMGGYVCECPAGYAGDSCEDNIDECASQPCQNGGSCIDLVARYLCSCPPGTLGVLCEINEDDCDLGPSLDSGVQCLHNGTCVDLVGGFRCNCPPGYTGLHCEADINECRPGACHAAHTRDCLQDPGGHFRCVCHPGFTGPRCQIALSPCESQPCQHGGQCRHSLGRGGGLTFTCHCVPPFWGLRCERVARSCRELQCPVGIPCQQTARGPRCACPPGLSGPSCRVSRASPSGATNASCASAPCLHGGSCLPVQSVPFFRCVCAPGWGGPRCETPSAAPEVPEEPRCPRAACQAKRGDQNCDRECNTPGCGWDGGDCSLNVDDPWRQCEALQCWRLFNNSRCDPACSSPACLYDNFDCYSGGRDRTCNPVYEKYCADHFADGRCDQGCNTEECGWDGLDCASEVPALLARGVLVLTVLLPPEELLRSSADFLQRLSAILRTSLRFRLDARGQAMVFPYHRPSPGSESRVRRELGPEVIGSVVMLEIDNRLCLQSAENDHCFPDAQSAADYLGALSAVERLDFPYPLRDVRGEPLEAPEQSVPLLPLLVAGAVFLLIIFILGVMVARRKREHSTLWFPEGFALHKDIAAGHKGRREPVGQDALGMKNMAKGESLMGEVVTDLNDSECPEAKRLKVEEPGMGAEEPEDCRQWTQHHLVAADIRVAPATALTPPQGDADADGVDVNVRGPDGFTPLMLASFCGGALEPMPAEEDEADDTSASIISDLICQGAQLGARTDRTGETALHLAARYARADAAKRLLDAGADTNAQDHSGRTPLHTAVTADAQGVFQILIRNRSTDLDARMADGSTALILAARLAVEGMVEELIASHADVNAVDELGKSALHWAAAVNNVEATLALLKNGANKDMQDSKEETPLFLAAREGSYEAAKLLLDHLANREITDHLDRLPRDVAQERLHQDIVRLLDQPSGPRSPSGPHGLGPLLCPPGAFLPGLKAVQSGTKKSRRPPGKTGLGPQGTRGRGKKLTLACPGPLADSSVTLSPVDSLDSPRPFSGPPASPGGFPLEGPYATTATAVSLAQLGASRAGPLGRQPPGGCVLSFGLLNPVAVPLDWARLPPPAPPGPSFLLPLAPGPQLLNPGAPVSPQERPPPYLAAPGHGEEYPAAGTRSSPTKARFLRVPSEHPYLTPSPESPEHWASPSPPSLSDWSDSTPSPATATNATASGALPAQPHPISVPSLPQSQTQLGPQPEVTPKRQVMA

binding result [1]: binds
binding result [2]: no binding
kon [3]: 272000 M⁻¹ s⁻¹
Kd [4]: 4.18 nM
koff [4]: 0.000396 s⁻¹
kon [4]: 94700 M⁻¹ s⁻¹
koff (rhNotch1-Fc): 0.000313 s⁻¹
kon (rhNotch1-Fc): 104000 M⁻¹ s⁻¹
Kd [5]: 0.948 nM
binding result [6]: no binding
koff [7]: 0.000258 s⁻¹
Kd (cynoNotch3 monomer): 806 nM
IC50; % inhibition of hJag2-mFc-stimulated RBP-Jk luciferase reporter activity in MDA-MB-468 cells with endogenous human Notch3 [8]: 0.53 ug/ml (unit taken from the x axis 'log (ug/ml)'; the table prints none)
LogIC50; same reporter assay [8]: -0.276 log (ug/ml)
Kd [9]: 2.55 nM
koff [9]: 0.000299 s⁻¹
kon [9]: 177000 M⁻¹ s⁻¹
Kd [10]: 2.72 nM
B1: 28042 antibody (antibody, human IgG1, kappa, V domains shown)
VH: EVQLLESGGGLVQPGGSLRLSCAASGFTFSDYMMSWVRQAPGKGLEWVSWIRSSGGTTLYADSVKGRFTISRDNSKNTLYLQMNSLRAEDTATYYCARVGGGTTGYAFDIWGQGTMVTVSS
VL: DIQMTQSPSSLSASVGDRVTITCRASQSISNYLNWYQQKPGKAPKLLIYGASSLQSGVPSRVSGTGSGTDFTLTISSLQPEDFATYYCQQSYSPSFTFGPGTKVDFER
